Blank lines part the entries; values can stand above or below the substance they belong to.
Columns and labels:
[1] = target: CD28 (human) (UniProt P10747); assay: flow cytometry on HEK293 cells transfected with CD28
[2] = target: CTLA4 (human) (UniProt P16410); assay: flow cytometry on HEK293 cells transfected with CTLA4
[3] = target: PD-L1 (human) (UniProt Q9NZQ7); assay: flow cytometry on HEK293 cells transfected with PD-L1
[4] = target: CTLA4 (human) (UniProt P16410); assay: flow cytometry, MFI on CTLA4 cells over MFI on CD28 cells
[5] = target: CD112R (full length, expressed on transfected cells) (human) (UniProt Q6DKI7); assay: flow cytometry on cells expressing the target, 20 nM
[6] = target: T1, CD96 (expressed on cells) (UniProt P40200); assay: as above
T1 sequence (looked up): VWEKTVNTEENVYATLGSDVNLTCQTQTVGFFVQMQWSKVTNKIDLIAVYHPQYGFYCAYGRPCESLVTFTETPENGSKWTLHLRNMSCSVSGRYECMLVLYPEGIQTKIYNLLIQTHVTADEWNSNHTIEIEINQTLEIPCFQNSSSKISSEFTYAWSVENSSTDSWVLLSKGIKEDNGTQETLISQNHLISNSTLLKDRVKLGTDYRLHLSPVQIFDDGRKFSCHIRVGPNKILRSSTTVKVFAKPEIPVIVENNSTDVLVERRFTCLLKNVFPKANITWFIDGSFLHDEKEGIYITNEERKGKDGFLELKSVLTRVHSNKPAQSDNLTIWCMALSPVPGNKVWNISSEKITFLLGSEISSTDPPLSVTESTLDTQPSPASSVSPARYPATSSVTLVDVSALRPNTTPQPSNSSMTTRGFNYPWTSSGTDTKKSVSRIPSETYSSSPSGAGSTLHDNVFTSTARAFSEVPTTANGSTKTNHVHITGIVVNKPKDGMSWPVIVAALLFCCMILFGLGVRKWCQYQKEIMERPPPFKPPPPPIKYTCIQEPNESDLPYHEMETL

[7] = target: T2, human CD226, full length, expressed on transfected Expi293 cells (human) (UniProt Q15762); assay: flow cytometry, Expi293 cells transfected with full-length human CD226
T2 sequence: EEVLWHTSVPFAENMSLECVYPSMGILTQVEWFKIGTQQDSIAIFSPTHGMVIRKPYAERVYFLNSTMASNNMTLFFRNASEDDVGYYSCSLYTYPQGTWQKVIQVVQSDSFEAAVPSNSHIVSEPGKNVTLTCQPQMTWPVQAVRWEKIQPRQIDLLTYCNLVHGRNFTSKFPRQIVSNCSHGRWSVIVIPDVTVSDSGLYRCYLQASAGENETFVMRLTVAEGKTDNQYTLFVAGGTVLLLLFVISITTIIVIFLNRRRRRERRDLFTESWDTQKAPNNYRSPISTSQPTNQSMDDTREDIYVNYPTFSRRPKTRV

[8] = target: T3, TIGIT (human) (UniProt Q495A1); assay: flow cytometry on TIGIT-expressing cells
T3 sequence: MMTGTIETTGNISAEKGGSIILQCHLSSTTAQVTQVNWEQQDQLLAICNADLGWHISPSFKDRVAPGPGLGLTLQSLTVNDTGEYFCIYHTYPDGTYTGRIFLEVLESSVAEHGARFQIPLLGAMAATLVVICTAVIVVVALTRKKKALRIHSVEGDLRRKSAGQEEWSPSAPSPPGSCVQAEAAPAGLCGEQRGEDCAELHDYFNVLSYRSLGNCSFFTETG

[9] = target: human CD112R, full length, expressed on transfected Expi293 cells (human) (UniProt Q6DKI7); assay: flow cytometry, Expi293 cells transfected with full-length human CD112R
[10] = target: T4, CD226 (human) (UniProt Q15762); assay: flow cytometry on CD226-expressing cells
T4 sequence: T2 sequence

[11] = target: T5, CD96 (UniProt P40200); assay: flow cytometry on CD96-expressing cells
T5 sequence (looked up): T1 sequence (looked up)

[12] = target: CD28 (human) (UniProt P10747); assay: flow cytometry; MFI vs m14
[13] = target: human B7-H6 (human) (UniProt Q68D85); assay: flow cytometry; MFI vs m14
[14] = target: CD28 (human) (UniProt P10747); assay: flow cytometry, transfected cells
[15] = target: human B7-H6 (human) (UniProt Q68D85); assay: flow cytometry, transfected cells
[16] = target: CD28 (human) (UniProt P10747); assay: flow cytometry; MFI vs m21
[17] = target: PD-L1 (human) (UniProt Q9NZQ7); assay: flow cytometry; MFI vs m21
[18] = target: PD-L1 (human) (UniProt Q9NZQ7); assay: flow cytometry, transfected cells
[19] = target: CTLA4 (human) (UniProt P16410); assay: flow cytometry; MFI vs m21
[20] = target: CTLA4 (human) (UniProt P16410); assay: flow cytometry, transfected cells
[21] = target: human ICOS (human); assay: flow cytometry, transfected cells
[22] = target: CTLA4 (human) (UniProt P16410); assay: flow cytometry, transfected cells; column head doubtful
[23] = target: PD-L1 (human) (UniProt Q9NZQ7); assay: as above
[24] = target: human B7-H6 (human) (UniProt Q68D85); assay: flow cytometry; MFI vs m9
[25] = target: human B7-H6 (human) (UniProt Q68D85); assay: flow cytometry; MFI vs m10
[26] = target: CD112R (human) (UniProt Q6DKI7); assay: flow cytometry on CD112R-expressing cells
[27] = target: human CD28, full-length, expressed on transfected Expi293 cells (human) (UniProt P10747); assay: flow cytometry on CD28-expressing Expi293 cells
[28] = target: human ICOS, full-length, expressed on transfected Expi293 cells (human) (UniProt Q9Y6W8); assay: flow cytometry on ICOS-expressing Expi293 cells
[29] = target: human B7-H6, full-length, expressed on transfected Expi293 cells (human) (UniProt Q68D85); assay: flow cytometry on B7-H6-expressing Expi293 cells
[30] = target: CD80 (Homo sapiens (Human)) (UniProt P33681); assay: flow cytometry, cells expressing CD80
[31] = target: PD-1 (Homo sapiens (Human)) (UniProt Q15116); assay: flow cytometry, cells expressing PD-1
[32] = target: PD-1 (Homo sapiens (Human)) (UniProt Q15116); assay: flow cytometry, cells expressing PD-1; vs WT PD-L1 (IgV + IgC) Fc
[33] = target: CD80 (Homo sapiens (Human)) (UniProt P33681); assay: flow cytometry, cells expressing CD80; vs WT PD-L1 (IgV + IgC) Fc
Target sequence in this assay (P33681 35-288 limits assumed): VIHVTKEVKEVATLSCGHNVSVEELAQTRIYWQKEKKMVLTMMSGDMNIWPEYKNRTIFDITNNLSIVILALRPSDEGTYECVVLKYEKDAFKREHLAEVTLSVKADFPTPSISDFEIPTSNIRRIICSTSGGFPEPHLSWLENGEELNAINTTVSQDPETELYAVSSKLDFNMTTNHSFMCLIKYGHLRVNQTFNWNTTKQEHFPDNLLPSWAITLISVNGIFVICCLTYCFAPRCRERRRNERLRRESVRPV

[34] = target: PD-1-Fc; assay: Fortebio (BLI), PD-1-Fc
[35] = target: PD-1 (Homo sapiens (Human)) (UniProt Q15116); assay: flow cytometry, Jurkat/PD-1 cells
[36] = target: PD-1 (Homo sapiens (Human)) (UniProt Q15116); assay: flow cytometry, Jurkat/PD-1 cells; vs wildtype PD-L2 IgV-Fc

Domain 1: CD80 WT / Domain 2: CD80 WT / Fc (Fc fusion), sequence (chain): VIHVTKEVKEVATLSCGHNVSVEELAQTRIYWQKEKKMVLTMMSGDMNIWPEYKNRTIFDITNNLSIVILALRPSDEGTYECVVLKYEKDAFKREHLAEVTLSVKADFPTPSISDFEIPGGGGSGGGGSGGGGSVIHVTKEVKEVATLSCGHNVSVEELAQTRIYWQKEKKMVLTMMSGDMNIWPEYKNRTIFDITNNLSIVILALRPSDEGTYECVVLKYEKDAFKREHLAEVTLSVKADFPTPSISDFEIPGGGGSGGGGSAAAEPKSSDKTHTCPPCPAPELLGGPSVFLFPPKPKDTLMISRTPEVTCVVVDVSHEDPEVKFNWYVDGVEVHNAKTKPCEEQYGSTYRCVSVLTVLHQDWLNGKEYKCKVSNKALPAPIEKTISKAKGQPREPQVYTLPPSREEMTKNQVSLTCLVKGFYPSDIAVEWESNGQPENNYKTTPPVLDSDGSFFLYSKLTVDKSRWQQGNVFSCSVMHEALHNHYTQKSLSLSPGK
PD-L1 (human), sequence (Q9NZQ7 19-290 limits assumed): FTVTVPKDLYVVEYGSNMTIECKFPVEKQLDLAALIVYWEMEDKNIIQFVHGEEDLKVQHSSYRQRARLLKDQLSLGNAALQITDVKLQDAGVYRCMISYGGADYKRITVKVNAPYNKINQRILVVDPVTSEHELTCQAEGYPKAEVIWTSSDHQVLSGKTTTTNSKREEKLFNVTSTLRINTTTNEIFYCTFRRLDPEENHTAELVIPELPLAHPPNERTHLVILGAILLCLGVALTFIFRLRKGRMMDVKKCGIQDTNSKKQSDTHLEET
Domain 1: ICOSL WT / Domain 2: CD80 WT / Fc (Fc fusion), sequence (chain): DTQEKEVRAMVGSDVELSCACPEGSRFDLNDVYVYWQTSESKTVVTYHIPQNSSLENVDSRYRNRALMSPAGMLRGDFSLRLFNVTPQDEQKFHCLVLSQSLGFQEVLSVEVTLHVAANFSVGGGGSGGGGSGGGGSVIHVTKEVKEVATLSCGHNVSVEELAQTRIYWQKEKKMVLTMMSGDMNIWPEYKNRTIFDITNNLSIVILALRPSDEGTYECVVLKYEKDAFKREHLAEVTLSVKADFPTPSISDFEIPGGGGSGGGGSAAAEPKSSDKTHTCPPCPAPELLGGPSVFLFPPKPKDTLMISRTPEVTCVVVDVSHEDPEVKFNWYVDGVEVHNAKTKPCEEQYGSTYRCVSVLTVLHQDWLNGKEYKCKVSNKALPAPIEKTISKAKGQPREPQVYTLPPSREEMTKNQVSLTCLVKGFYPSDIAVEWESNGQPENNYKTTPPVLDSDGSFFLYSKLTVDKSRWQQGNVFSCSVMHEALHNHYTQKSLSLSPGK
CTLA4 (human), sequence (P16410 36-223 limits assumed): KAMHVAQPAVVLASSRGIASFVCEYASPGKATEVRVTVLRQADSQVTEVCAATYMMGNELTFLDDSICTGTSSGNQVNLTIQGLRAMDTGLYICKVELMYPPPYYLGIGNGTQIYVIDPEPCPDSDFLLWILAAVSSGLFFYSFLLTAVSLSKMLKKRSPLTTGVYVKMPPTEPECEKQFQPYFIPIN
PD-1 (Homo sapiens (Human)), sequence (Q15116 21-288 limits assumed, form in doubt): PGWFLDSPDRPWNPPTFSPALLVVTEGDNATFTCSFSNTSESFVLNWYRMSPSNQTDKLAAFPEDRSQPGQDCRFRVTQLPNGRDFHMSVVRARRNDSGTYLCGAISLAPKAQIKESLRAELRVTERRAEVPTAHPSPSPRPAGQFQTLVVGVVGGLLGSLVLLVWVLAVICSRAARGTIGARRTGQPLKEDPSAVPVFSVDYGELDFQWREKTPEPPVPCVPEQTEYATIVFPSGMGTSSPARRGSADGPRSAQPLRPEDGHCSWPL
human B7-H6 (human), sequence (Q68D85 25-454): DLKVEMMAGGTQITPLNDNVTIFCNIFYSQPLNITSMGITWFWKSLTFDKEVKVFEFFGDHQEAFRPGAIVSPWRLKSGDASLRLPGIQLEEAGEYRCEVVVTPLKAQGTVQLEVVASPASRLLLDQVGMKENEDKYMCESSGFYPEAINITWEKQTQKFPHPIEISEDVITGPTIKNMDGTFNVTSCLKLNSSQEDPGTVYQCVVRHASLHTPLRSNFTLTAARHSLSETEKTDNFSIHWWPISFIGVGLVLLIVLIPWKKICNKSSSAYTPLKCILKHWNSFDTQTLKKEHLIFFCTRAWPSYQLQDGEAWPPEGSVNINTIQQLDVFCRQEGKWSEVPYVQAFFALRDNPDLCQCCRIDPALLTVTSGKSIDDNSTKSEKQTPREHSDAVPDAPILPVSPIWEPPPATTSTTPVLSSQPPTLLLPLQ
human B7-H6, full-length, expressed on transfected Expi293 cells (human), sequence (Q68D85 25-454): as above
WT CD112 IgV Fc fusion, sequence (Q92692 32-156 limits assumed): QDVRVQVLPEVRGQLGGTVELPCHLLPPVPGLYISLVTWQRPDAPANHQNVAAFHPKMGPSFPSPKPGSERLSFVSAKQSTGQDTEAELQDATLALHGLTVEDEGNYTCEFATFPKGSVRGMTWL
Wildtype CD112-IgV Fc, sequence (Q92692 32-156 limits assumed): as above
CD112R (full length, expressed on transfected cells) (human), sequence (Q6DKI7 whole entry): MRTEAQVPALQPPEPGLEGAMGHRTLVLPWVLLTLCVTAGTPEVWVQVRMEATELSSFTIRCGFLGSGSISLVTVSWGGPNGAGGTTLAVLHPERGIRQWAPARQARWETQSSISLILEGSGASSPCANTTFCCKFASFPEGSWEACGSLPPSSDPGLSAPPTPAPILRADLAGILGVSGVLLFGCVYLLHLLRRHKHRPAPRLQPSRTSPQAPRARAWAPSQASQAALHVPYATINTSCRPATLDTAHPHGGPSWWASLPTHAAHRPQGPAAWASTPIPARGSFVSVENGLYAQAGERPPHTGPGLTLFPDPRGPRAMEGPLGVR
CD112R (human), sequence (Q6DKI7 whole entry): as above
human CD112R, full length, expressed on transfected Expi293 cells (human), sequence (Q6DKI7 whole entry): as above
human ICOS, full-length, expressed on transfected Expi293 cells (human), sequence (Q9Y6W8 21-199 limits assumed): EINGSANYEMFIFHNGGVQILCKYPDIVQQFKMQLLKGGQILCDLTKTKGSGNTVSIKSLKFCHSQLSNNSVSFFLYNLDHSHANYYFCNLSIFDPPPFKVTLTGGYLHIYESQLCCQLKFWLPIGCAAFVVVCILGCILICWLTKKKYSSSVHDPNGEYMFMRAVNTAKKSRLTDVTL
human ICOS (human), sequence (Q9Y6W8 whole entry): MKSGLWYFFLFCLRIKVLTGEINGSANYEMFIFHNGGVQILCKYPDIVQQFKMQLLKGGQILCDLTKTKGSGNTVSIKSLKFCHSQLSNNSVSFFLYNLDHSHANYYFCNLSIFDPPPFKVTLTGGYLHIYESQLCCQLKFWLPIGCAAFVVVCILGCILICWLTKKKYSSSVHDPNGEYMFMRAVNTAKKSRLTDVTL

Substance: CD80 IgV-Fc I30T/L70R (Fc fusion)
Fold change to WT [1]: 0.1 fold | MFI at 66.6 nM [1]: 2600 MFI | Fold change to WT [2]: 0 fold | MFI at 66.6 nM [2]: 2230 MFI | MFI at 22.2 nM [3]: 5160 MFI | Ratio of CTLA4:CD28 [4]: 0.9

Substance: CD112 IgV R12W, Y33H, N47K, Q79R, S118Y Fc fusion (from UniProt Q92692 32-156)
MFI at 20 nM [5]: 1120 | MFI at 20 nM [6]: 2640

Substance: CD112 variant Y33H, S118T IgV-Fc (from UniProt Q92692 32-156) (Fc fusion)
MFI at 100 nM [11]: 5000 MFI | MFI at 100 nM [10]: 17700 MFI

Substance: Domain 1: CD80 (R29H/Y31H/T41G/Y87N/E88G/K89E/D90N/A91G/P109S) / Domain 2: NKp30 (L30V/A60V/S64P/S86G) / Fc (Fc fusion)
WT parental MFI ratio [12]: 0.32 | WT parental MFI ratio [13]: 0.5 | MFI [14]: 4340 | MFI [15]: 55700

Substance: Domain 1: CD80 I67T/L70Q/A91G/T120S / Domain 2: CD80 E88D/K89R/D90K/A91G/F92Y/K93R / Fc (Fc fusion)
WT parental MFI ratio [16]: 0.57 | WT parental MFI ratio [17]: 0.16 | MFI [14]: 938 | MFI [18]: 995

Substance: Domain 1: CD80 R29V/Y31F/K36G/M38L/M43Q/E81R/V83I/L85I/K89R/D90L/A91E/F92N/K93Q/R94G / Domain 2: CD80 E88D/K89R/D90K/A91G/F92Y/K93R / Fc (Fc fusion)
WT parental MFI ratio [19]: 0.42 | WT parental MFI ratio [17]: 0.31 | MFI [20]: 1990 | MFI [18]: 1930

Substance: Domain 1: CD80 WT / Domain 2: CD80 WT / Fc (Fc fusion)
MFI [14]: 1630 | MFI [20]: 4700 | MFI [18]: 6300

Substance: Domain 1: CD80 WT / Domain 2: Nkp30 WT / Fc (Fc fusion)
WT parental MFI ratio [13]: 1 | MFI [14]: 13700 | MFI [15]: 110000

Substance: stacked Fc fusion, Domain 1: ICOSL WT / Domain 2: Nkp30 WT
MFI [27]: 7920 MFI | MFI [28]: 70300 MFI | MFI [29]: 118000 MFI | WT parental MFI ratio (ratio to WT stack) [29]: 1

Substance: stacked Fc fusion, Domain 1: NKp30 WT / Domain 2: ICOSL WT
MFI [27]: 6340 MFI | MFI [29]: 64500 MFI

Substance: variant PD-L1 ECD-Fc I36T, G52R, M97L, V112A, K144E, V175A, P198T (Fc fusion)
MFI at 20 nM [30]: 149 | MFI at 20 nM [31]: 81 | Fold Change Compared to WT PD-L1 [32]: 0 fold

Substance: variant PD-L1 ECD-Fc K57R, S99G, F189L (from UniProt Q9NZQ7 19-239) (Fc fusion)
MFI at 20 nM [30]: 12900 | Fold Change Compared to WT PD-L1 [33]: 96.3 fold

Substance: variant PD-L2 IgV-Fc H15Q, R76G, I85F (SEQ ID NO 1505) (Fc fusion)
Fortebio binding to PD-1-Fc Response Units (Response Units) [34]: -0.006 | MFI at 50 nM [35]: 1890 | Fold increase over wildtype PD-L2 IgV-Fc [36]: 0.19 fold

Further lines, results first:

MFI [7]: 51900 MFI
Substance: CD112 variant A95V, A112I IgV-Fc fusion (from UniProt Q92692 32-156)

MFI 100 nM [8]: 4270 MFI
Substance: CD112 variant G82S, S118Y IgV-Fc (from UniProt Q92692 32-156) (Fc fusion)

MFI [9]: 6540 MFI
Substance: CD112 variant S118Y IgV-Fc fusion (from UniProt Q92692 32-156)

MFI at 100 nM [10]: 15600 MFI
Substance: CD112 variant Y33H, A46T, Q79R, N106I, S118F IgV-Fc (from UniProt Q92692 32-156) (Fc fusion)

MFI [14]: 3000 | MFI [18]: 2970 | MFI [21]: 14400 | MFI [22]: 14400 | MFI [23]: 3000
Substance: Domain 1: ICOSL WT / Domain 2: CD80 WT / Fc (Fc fusion)

WT parental MFI ratio [24]: 1 | MFI [14]: 7020 | MFI [15]: 88800
Substance: Domain 1: NKp30 WT / Domain 2: CD80 WT / Fc (Fc fusion)

WT parental MFI ratio [25]: 1 | MFI [14]: 1690 | MFI [15]: 14100
Substance: Domain 1: NKp30 WT / Domain 2: CD86 WT / Fc (Fc fusion)

MFI at 20 nM [5]: 1660 | MFI at 20 nM [6]: 2500
Substance: WT CD112 IgV Fc fusion (from UniProt Q92692 32-156)

MFI at 100 nM [11]: 8540 MFI | MFI at 100 nM [26]: 4840 MFI
Substance: Wildtype CD112-IgV Fc (from UniProt Q92692 32-156) (Fc fusion)

MFI at 20 nM [30]: 190 | MFI at 20 nM [31]: 69 | Fold Change Compared to WT PD-L1 [32]: 0 fold
Substance: variant PD-L1 ECD-Fc I36T, I46V, D55G, M97L, K106E, K144E, T185A, R195G (Fc fusion)

Fortebio binding to PD-1-Fc Response Units (Response Units) [34]: 1.45 | MFI at 50 nM [35]: 61000 | Fold increase over wildtype PD-L2 IgV-Fc [36]: 6.2 fold
Substance: variant PD-L2 IgV-Fc I13V, H15Q, T47A, Q82R, V89D (SEQ ID NO 1545) (Fc fusion)

Reference: patent US20200040059A1
